The source of these data is patent US20260077065A1, “Compositions and Methods for Assessing Kinase Activity” (The Board of Trustees of the Leland Stanford Junior …, priority 2022, published 2026).

The test system of test [1] is ERK. The test is described as follows: bKiMBI bioluminescence in cancer cell lines U87, U87-EGFRvIII, SK-OV-3. Format: cell-based, human. The conditions noted are these: SK-OV-3 cells. From the text: Endogenous ERK activity in these cell lines appeared to be only partially activated, as co-expressing caMEK further suppressed basal KiMBI signal. […] This provides additional evidence that KiMBI responds positively to ERK inhibition, and argues against inhibitors directly binding KiMBIs to enhance NanoLuc assembly or catalysis. […] Positive KiMBI responses must actually overcome this tendency of kinase inhibitors to suppress bioluminescence.
In vitro cell-based bioluminescent assay. Cells were seeded into 96-well Lumitrac plate (Greiner Bio-One) at a density of 1.5-2×10^4 cells per well. After 24 h, cells were transiently transfected with KiMBI-expressing plasmids (5-10 ng per well) with or without caMEK-expressing plasmids (50 ng per well, empty pcDNA3.1 as negative control to keep total transfected DNA amount consistent) using lipofectamine 3000 (Invitrogen) following manufacturer's instructions. […] Then, for assaying luminescence, Nano-Glo live cell assay system (Promega) was used following manufacturer's instructions. Time-lapse live luminescence was recorded on Safire-2 microplate reader (Tecan) with 100 ms integration and one read per min for 20 min. Luminescence spectrum was measured on a Varioskan LUX multimode microplate reader (Thermo Scientific) using the spectral scanning protocol with 1 s integration for each wavelength at 400-680 nm (1 nm per data point).

Test [2] relates to ERK. The test is described as follows: ERK KiMBI cell-based bioluminescent assay, HEK293A cells co-transfected with caMEK. The conditions noted are these: FIG. 5d. From the text:
To develop a luciferase reporter protein whose activity can be activated by ERK inhibition, it was hypothesized that NanoLuc luciferase catalytic activity could be modulated through large ERK-induced conformational changes. Created and tested were fusion proteins of various topologies (FIG. 2a) comprising the NanoLuc NanoBiT fragments, an ERK substrate peptide from Cdc25C^7, and a proline-directed WW phospho-binding domain (WW)^8 from Pin1. In particular, an arrangement was postulated in which binding of phosphorylated substrate (pSub) to WW would force the SmBiT fragment to adopt an unfavorable conformation for LgBiT complementation, would show low luminescence with active ERK and high luminescence with inhibited ERK (FIG. 2b). […]
In vitro cell-based bioluminescent assay. […] Then, for assaying luminescence, Nano-Glo live cell assay system (Promega) was used following manufacturer's instructions. Time-lapse live luminescence was recorded on Safire-2 microplate reader (Tecan) with 100 ms integration and one read per min for 20 min. Luminescence spectrum was measured on a Varioskan LUX multimode microplate reader (Thermo Scientific) using the spectral scanning protocol with 1 s integration for each wavelength at 400-680 nm (1 nm per data point).

B1: bKiMBI: ERK blue KiMBI, WW F25A; SEQ ID NO:2 (protein)
chain: MVSKGEELIKENMRSKLYLEGSVNGHQFKCTHEGEGKPYEGKQTNRIKVVEGGPLPFAFDILATHFMYGSKVFIKYPADLPDYFKQSFPEGFTWERVMVFEDGGVLTATQDTSLQDGELIYNVKVRGVNFPANGPVMQKKTLGWEPSTETMYPADGGLEGRCDKALKLVGGGHLHVNFKTTYKSKKPVKMPGVHYVDRRLERIKEADNETYVEQYEHAVARYSNLGGGFTLEDFVGDWEQTAAYNLDQVLEQGGVSSLLQNLAVSVTPIQRIVRSGENALKIDIHVIIPYEGLSADQMAQIEEVFKVVYPVDDHHFKVILPYGTLVIDGVTPNMLNYFGRPYEGIAVFDGKKITVTGTLWNGNKIIDERLITPDGSMLFRVTINSIMADEEKLPPGWEKRMSRSSGRVYYANHITNASQWERPSGNSSSGGKNGQGEPARVTGYRLFEPDSPRTPVDKAKLSFQFP
For B1, in the test with ERK [1], the “bKiMBI response (brightness increase) after ERK inhibition” value is reported as approximately 2.5 fold.

B2: tKiMBI: ERK KiMBI with N-terminal tdTomato; SEQ ID NO:4 (protein)
chain: MVSKGEEVIKEFMRFKVRMEGSMNGHEFEIEGEGEGRPYEGTQTAKLKVTKGGPLPFAWDILSPQFMYGSKAYVKHPADIPDYKKLSFPEGFKWERVMNFEDGGLVTVTQDSSLQDGTLIYKVKMRGTNFPPDGPVMQKKTMGWEASTERLYPRDGVLKGEIHQALKLKDGGHYLVEFKTIYMAKKPVQLPGYYYVDTKLDITSHNEDYTIVEQYERSEGRHHLFLGHGTGSTGSGSSGTASSEDNNMAVIKEFMRFKVRMEGSMNGHEFEIEGEGEGRPYEGTQTAKLKVTKGGPLPFAWDILSPQFMYGSKAYVKHPADIPDYKKLSFPEGFKWERVMNFEDGGLVTVTQDSSLQDGTLIYKVKMRGTNFPPDGPVMQKKTMGWEASTERLYPRDGVLKGEIHQALKLKDGGHYLVEFKTIYMAKKPVQLPGYYYVDTKLDITSHNEDYTIVEQYERSEGRHHLFRLEDFVGDWEQTAAYNLDQVLEQGGVSSLLQNLAVSVTPIQRIVRSGENALKIDIHVIIPYEGLSADQMAQIEEVFKVVYPVDDHHFKVILPYGTLVIDGVTPNMLNYFGRPYEGIAVFDGKKITVTGTLWNGNKIIDERLITPDGSMLFRVTINSIMADEEKLPPGWEKRMSRSSGRVYYFNHITNASQWERPSGNSSSGGKNGQGEPARVTGYRLFEPDSPRTPVDKAKLSFQFP
With B2, the “time to full induction of reporter by kinase inhibitor” value in the test with ERK [2] is approximately 1 h.
